Assay results from the nanobody polyreactivity screen of Harvey et al. (2022).

test: yeast display, Sf9 membrane polyspecificity reagent, FACS + sequencing; frameworks hold sequencing errors
In short: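 A synthetic nanobody library was expressed on Saccharomyces cerevisiae BJ5465 by galactose induction for 36–48 hours. The library was stained for 1 hour at 4 °C with 10% biotinylated, detergent-solubilized Sf9 membrane reagent and enriched with streptavidin microbeads before FACS. Low and high (top ~1%) gates were set on anti-HA fluorescence for expression and streptavidin fluorescence for reagent binding, and each polyreactivity label reflects the gate of origin.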

Row | Sequence | polyreactivity (PSR sort gate)
1 | QDQLVESGGGLVQAGGSLRLSCAASGSTFVGNAMGWYRQAPGKERELVAAISRTGGSTYYADSVKGRFTISRDNAKNTVYLQMNSLKPEDTAVYYCAARRYDIRYYYVTYRPPKMYYWGQGTQVTVSS | high polyreactivity
2 | QDQLVESGGGLVQAGGSLRLSCAASGSTFYTYAMGWYRQEPGKERELVAAISYRGGSSYYAVSVKGRFTISRDNAKYTVYLQMNSLKPEDTAVYYCAAKVSRAGDFWGQGTQVTVSS | low polyreactivity
3 | QDQLVESGGGLVQAGGSLRLSCAASGSTFYWYTMGWYRQAPGKESEMVATITSVGRTNYADSVKGRFTISRDNAKNTVYLQMNSLKPEDTAVYYCAASKARWARGGSKYYYWGQGTQVTVSS | high polyreactivity
4 | QDQLVESGGGLVQAGGSLRLSCAASGSTIDDYARGWYRQAPGKERELVAAITWTSTDTYADSVKGRFTISRDNAKNTVYLQMNCLKPEDTAVYYCATDFIWDTAVTGGPNDWEYDYWGQGTQVTVSS | low polyreactivity
5 | QDQLVESGGGLVQAGGSLRLSCAASGSTIRVKAMGWYRLAPGKERELVAGISKSGTSTYYADSVKGRFTISRDNAKNTVYLQMNSLKPEDTAAYYCATHLGRRTSGSRFGYWGQGTQVTVSS | high polyreactivity
6 | QDQLVESGGGLVQAGGSLRLSCAASGSTLARYGMGWYRQAPGKERELVAAISYSGGRTYYADSVKGRFTISRDNAKNTVYLQMNSLKPEDTAVYYCAARRVYVPRGPIEFYYWGQGTQVTVSS | high polyreactivity
7 | QDQLVESGGGLVQAGGSLRLSCAASGSTLFIYARGWYRQAPGKEREFVAGISYSGGSTYYADSVKGRFTISRDNAKNTVYLQMNSLKPEDTAVYYCAAATVYLSWYYWGQGTQVTVSS | high polyreactivity
8 | QDQLVESGGGLVQAGGSLRLSCAASGSTLYAYAMGWYRQAPGKERELVAAISFSTTSTYYADSVKGRFTISRDYEKNTVYLQMNSLKPEDTAVYYCAAEYWYYWEYEYWGLGTQVTVSS | high polyreactivity
9 | QDQLVESGGGLVQAGGSLRLSCAASGYIFLRNAMGWYRQAPGKERELVATISRTGRTNYADSVKGRFTISRDNAKNTVFLHMNSLKPEDTAVYYCAAASVFGRIRLWYDYWGQGTQVTVSS | high polyreactivity
10 | QDQLVESGGGLVQAGGSLRLSCAASGYTFRYAMGWNIQAPGKERELVAGITSSGGSTYYADSVKGRFTISRDNAKNTVYLQMNSLKPEDTAVYYCNADFFVWLYPHYLIFDYWGQGTQVTVSS | low polyreactivity
11 | QDQLVESGGGLVQAGGSLRLSCAASVSTFYVYAMGWYRQAPGKERELVAAITRGGSTYYADSVKGRFTISRDNAKNTVYLQMNSLKPEDTAGYYCAADYGSRWGYDYCGQGTQVTVSS | low polyreactivity
12 | QDQLVESGGGLVQAGGSLRLSCAAYGIIFWDNAMGWYRQAPGKERELVASINYSGGSTYYADSVKGRFTISRDNAKNTVYLQMYSLKPEDTAVYYCAARTVTLDDWDYAYDYWGQGTQVTVSS | low polyreactivity
13 | QDQLVESGGGLVQAGGSLRLSCAPSGFIFDDNAMGWYRQAPGKERELVAAITSGGGSTYYADSVKGRFTISRDNAKNTFYLQMNSLKPEDTAVYYCNKVYGWYSFKWGPTASDYWGQGTQVTVSS | low polyreactivity
14 | QDQLVESGGGLVQAGGSLRLSCAPSGSIFYRNAMGWYRQAPGKERELVAAIRYSGDNTYYADSVKGRFTISRDNSKNTVYLQMNSLKPEDTAVYYCAADFPDYEYWGQGTQVTVSS | high polyreactivity
15 | QDQLVESGGGLVQAGGSLRLSCASSGFTFNGYAMGWYRQAPGKERELVAAINISGGSTYYADSVKGRFTISRDNAKNTVYLQMNSLNPEDTAVYYCAARLWGKRYSYRYGYWGQGTQVTVSS | high polyreactivity
16 | QDQLVESGGGLVQAGGSLSLSCAASGRTFYWYVMGWYRQAPGKERELVAAITQTGSSSYYADSVKGRFTISRDNAKNTVYLQMNSLKPEDTAVYYCADRLSRNHYEVDYWGQGTQVTVSS | low polyreactivity
17 | QDQLVESGGGLVQAGGSLSLSCAASGSIFGKYTMGWYRQAPGKERELVAGITYRAGSTYYADSVKGRFTISRDNAKITVYLQMNSLKPEDTAVYYCAARFYFRWYYYGSYANYWGQGTQVTVSS | high polyreactivity
18 | QDQLVESGGGLVQAGGSRRLSCAASGSIFIYAMGWYRQAPGNERELVATIDSGGSTNYADSVKGRFTISRDNAKNTFYLQMNSLKPEDTAVYYFAARPYTTYHYVDDYWGQGTQVTVSS | high polyreactivity
19 | QDQLVESGGGLVQAGGTLRLSCDASGSTFFRNAMGWYRQPPGKEREMVADISASGGSTYYADSVKGRFTISRDNAKNTVYLQMNSLKPEDNADYYCNALYIYFYNYLTMDYWGQGSQVTVSS | low polyreactivity
20 | QDQLVESGGGLVQAGVSLRLSCAASGRTIRHNPMGWYIQAPGKERELVATINRGGNTYYADSVKGRFTISRDNAKNTVYLQMISLKPEDTAVYYCAARRSFLFDDGNYWGQVTQVTVSS | low polyreactivity

Row | Sequence | polyreactivity (PSR sort gate)
21 | QDQLVESGGGLVQAGVSLRLSCPASGNIFNGKAMGWYRQAPGKERELVAAISSGGGSTYYADSVKGRFTISRDNAMNTVYLQMNSLKPEDTAVYYCAASRVRYSYGYPYYYWGQGTQVTVSS | high polyreactivity
22 | QDQLVESGGGLVQARGSLRLSCAASGYIFPFYAMGWYRQAPGKESELVASISSSSGRTNYADSVKGRFTISRDNAMNTVYLQMNSLKPEDTAVYYCSAAYLRYVSTQYHYDYWGQGTQVTVSS | low polyreactivity
23 | QDQLVESGGGLVQEGGSLRLSCAASGLIFTYYAMGWYRQAPGKERELVAAINYSGGSTYYADSVKGRFTISRDNAKNTVYLQMNSLKPEDTAVYYCDARRVTQTEGPMGYWGQGTQVTVSS | low polyreactivity
24 | QDQLVESGGGLVQEGGSLRLSCAASGSIFARNAMGWYRQAPGKERELVAAISRSGGSTYYADSVKGRFTISRDNAKNTVYVQMNSMKPEDTAVYFCNAVQRYSQGDYWGHGTQVTVSS | high polyreactivity
25 | QDQLVESGGGLVQPGGSLRLSCAASGRTFRFNAMGWYRQAPGKERELVAVITSNDGSTYYADSVKGRFTISRDNAKNTVYLQMNSLKPEDTAVYYCAADWSYAWSWFYYWGQGTQVTVSS | low polyreactivity
26 | QDQLVESGGGLVQSGGSLRLSCAASGFIFPHYAMGWYRPAPGKERELVAAISKSGDSTYYADSVKGRFSISRDNAKNTVYLQMNSLKPEDTAVYYCARRGRSLLWKYDYWRQGTQVTVSS | low polyreactivity
27 | QDQLVESGGVLVQAGGSLRLSCAASGSIFFRNAMGWYRQAPGKERELVAGIRWSGGSTYYADSVKARFTISRDNAKNTVYLQMNSLKPEDSAVYYCAASRYRPARVQYSYDYWGQGTQVTVSS | high polyreactivity
28 | QDQLVESGRGLVQAGGSLRLSCAASGFIFYNYAMGWYIQAPGKERELVAAISASGGRTYFADSVQGRFTISRDNAKNTVYLQMNRLKPEDTAFYYCNARVNYKGYDYWGQGTQVTVSS | high polyreactivity
29 | QDQLVESGRGLVQAGGSLRLSCAASGSINATNAMGWYRQAPGKERELVPSISYSVSRTYYADSVKGRFTISRDNAKNTVYFQMNSLTPEDTAVYYCAVRQVNWFGIGYEDDYCGQGTQVTVSS | low polyreactivity
30 | QDQLVESGVGLDQAGVSLRLSCAASGRTFKGNAMGWYSQATGKESELVAVITGSGGSTYYADSVKGRFTISRDNAKNTVYLQMTSLKPEDTAVYYCNKTLQRRSWYDYWGQGTQVTVSS | low polyreactivity
31 | QDQLVESGVGLVQAGGSLRLSCAASGRTYFSHTMGWYRQAPGKERQLVAAITRSGGTTYYADSVKGRFTISRDNAKNTVYLQMNSLKPEDTAVYYCAARTSYAFYYPRDYWGQGTQVTVSS | high polyreactivity
32 | QDQLVESGVGLVQAGGSLRLSCAASGSTFYYYAMGWYRQAPGKERELVAAITSDGSTNYADSVKGRFTISRDNAKNTVYLQMNSLKTEDTAVYYCAKTYYWGYDWGQGTQVTVSS | low polyreactivity
33 | QDQLVESRGGLVQAGGSLGLSCAASGSIFSYYAMGWYRQAPGKERELVAAITSGGATTYYADSVKGRFTISRDYAKNTVYLQMNSLKPEDTAVYYCAAGYYVYYRWWELDYWGQGTQVTVSS | low polyreactivity
34 | QDQLVESRGGLVQAGGSLRISCAASGSPFYRNAKGWNTQAPGKERELVATISTGGVSTYYADSVKGRFTISRDNAKNTVYLQMNSLKPEDTAVYYCAQRTVYLSNLDYWGQGTQVTVTS | low polyreactivity
35 | QDQLVESRGGLVQAGGSLRLSCAASGINIGTNAMGWYRQAPGKERELVAAISGGGSTDYADSVKGRFTISRDNAKNPVYLQMNSLKPEDPAFYYCAANTGPVPLKGDYWGQGTQVTVSS | low polyreactivity
36 | QDQLVESRGGLVQAGGSLRLSCAASGLIFWRYTMGWYSQAPGKERELVAAINRSGGSTYYADSVKGRFTISRDNAKNTVYFQMNSLKPDDPAVYYCAASGYRYPIDGDYWGLGTQVTVSS | high polyreactivity
37 | QDQLVESRGGLVQAGGSLRLSCAASGRIFGYNAMGWYTQAPGKERELVAGITSVGRTYYADSVKGRFTISRDNAKNTVYLQMNSLKPEDTAVYYCNAASYSLAVTAEYEDMDYWGQGTQVTVTS | low polyreactivity
38 | QDQLVESRGGLVQAGGSLRVSCAASGLSFGYYAMGWYRQATGKERELVAAISSSGVNTYYADSVKGRFTISRDNPKNTVYLQMNSLIPEDTAVYYCNTVPKPWYSWKYAYDYWGQGTQVTVSS | high polyreactivity
39 | QDQLVESRVGLVQAGGSLRLSCAASGMIIGIYDMGWYRQAPGKERELVAAIRRSGGSTYYADSVKGRFTISRDNAKNTVYLQMYSLKPEDTAAYYCATDAWYYSQTNHDYWGQGTHVTVSS | low polyreactivity
40 | QDQLVESVGCLVQAGGSLRLSCAASGLTIQRNDMGWYRQAPGKEREFVATITSNAGSTYYADSVKGRFTISRDNAKNTVYLQKNSLKPEDTAVYYCARERWWGGSDYWGQGTQVTVSS | high polyreactivity
